Assay results from publication PMC3836757.

Key:
[1] = molecular target: RNA polymerase core enzyme;sigma 70 (RpoD) (Escherichia coli;Ehrlichia chaffeensis) (UniProt P0A7Z4+P0A8V2+P0A8T7+P0A800+Q2GG75); experiment: EMSA; details: 50 mM Tris-acetate pH 8.0, 50 mM K-acetate, 8.1 mM Mg-acetate, 27 mM NH4-acetate, 100 ug/ml BSA, 5% glycerol, 50 ug/ml poly(dI-dC), 20 fmol each probe and RNAP …
[2] = molecular target: RNA polymerase core enzyme;sigma 32 (RpoH) (Escherichia coli;Ehrlichia chaffeensis) (UniProt P0A7Z4+P0A8V2+P0A8T7+P0A800+Q2GGG9); experiment: EMSA; details: 50 mM Tris-acetate pH 8.0, 50 mM K-acetate, 8.1 mM Mg-acetate, 27 mM NH4-acetate, 100 ug/ml BSA, 5% glycerol, 50 ug/ml poly(dI-dC), 20 fmol each probe and RNAP …

**Q.** “AAGCAAGTCTACTCATATTTTTATTAATTAAGTAGTAAAGTTAACTATAGATTTTATTAAAATTTTTATTCTAATCACTTTAAATATCAATTACTTTTGTTGTAAATTTGAAAGAAATTTTATATTCTAGACTTGCTTTTCTTTATTTCTTTCATTATTCTTAAATTTTTATTATCTTTTATAAAAGGTTTATTAACATG (double strand) [p28-Omp14 promoter probe]” was tested. Which binding [1] did it give?
**A.** Its binding is “binds”.

**Q.** And the binding [2]?
**A.** The binding was “binds more weakly”.

**Q.** “TTCATAAATTTATGAACTTGTGTTAAATGGGGTTGTAATCTTATGATTTGGTTATTATATCTGTGATTATAGTTTTGATTTTTATGTAAGGGGGCTATTTATGGCTGTTATAGGTATAGATTTAGGTAC (double strand) [dnaK promoter probe]” was tested. Which binding [2] did it give?
**A.** The binding was “binds”.

**Q.** How did the binding [2] turn out when “TAACTTACTTAAAAAATTAACTACTTAAATATCAACGATGTTTTCAGTATCAAGTCAATTGATTTTTTATGTGTTATGTAAACTGTTACAGAGTAATATAATATTTCTACTGGGTCCTATAAAGTTCTAACCTTGTAAACATTTGTGCAATATGTATTATAAAATTTATTGATTGATACTTGAAATTAGATTTCTTGATATTATATATGATCTTAGCTAGTAGTATCTGATGCTACTGATAATTTATTTTTTTATAGAGGTAG (double strand) [groE promoter probe]” was run?
**A.** The binding was “binds”.

**Q.** Which binding [1] does the source give for “CTGACGTAATATATTAAATTTTCCTTACAAAAGTTACCGATATTTTATACAAAAATTTATATTCTGACTTGCTTTTATATGACACTTCTACTATTGTTAATTTATTTGTCACTATTAGGTTATATATGAATTACA (double strand) [p28-Omp19 promoter probe]” here?
**A.** Its binding is “binds”.

**Q.** And the binding [2]?
**A.** The binding was “binds more weakly”.

**Q.** What does the source list for “ATTGCAGATTAATTAATAATGCTTTAAGTAATAACAAATAAATTTAGTTGACTATATGAACTAACCTAATATCCTAAATCTTGTTCAGTTATGTAAAATTAGGAGTTAAAATTA (double strand) [hup promoter probe]”?
**A.** binding [1]: binds; binding [2]: binds more weakly
